According to patent US20240101959A1, “USE OF IL-2R-BETA-GAMMA AGONIST PEPTIDES IN CELL MANUFACTURING” (MEDIKINE, INC., priority 2022, published 2024):
Like-named read-outs stand apart in the source and are kept apart here. Non-standard residues stand in square brackets, D forms with d. No end group written: not given here. Alb = not defined here

T1: IL-2Rβ (Homo sapiens, UniProt P14784)
T1 sequence (P14784 27-551): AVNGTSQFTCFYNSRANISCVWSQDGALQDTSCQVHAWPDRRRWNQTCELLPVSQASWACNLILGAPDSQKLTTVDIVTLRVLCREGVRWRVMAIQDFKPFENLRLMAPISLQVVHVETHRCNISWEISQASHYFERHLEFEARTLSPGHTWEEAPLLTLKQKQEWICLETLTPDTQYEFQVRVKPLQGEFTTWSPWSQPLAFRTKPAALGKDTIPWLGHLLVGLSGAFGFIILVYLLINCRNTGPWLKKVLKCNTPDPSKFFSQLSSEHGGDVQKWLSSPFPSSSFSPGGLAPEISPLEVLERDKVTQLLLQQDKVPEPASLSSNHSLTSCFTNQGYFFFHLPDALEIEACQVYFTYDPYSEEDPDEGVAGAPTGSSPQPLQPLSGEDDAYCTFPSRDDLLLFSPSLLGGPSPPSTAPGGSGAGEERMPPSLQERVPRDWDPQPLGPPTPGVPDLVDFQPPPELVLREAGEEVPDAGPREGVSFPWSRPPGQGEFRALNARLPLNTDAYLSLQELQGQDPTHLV

T2: hu-IL-2Rγc subunit (Homo sapiens, UniProt P31785)
T2 sequence (P31785 23-369): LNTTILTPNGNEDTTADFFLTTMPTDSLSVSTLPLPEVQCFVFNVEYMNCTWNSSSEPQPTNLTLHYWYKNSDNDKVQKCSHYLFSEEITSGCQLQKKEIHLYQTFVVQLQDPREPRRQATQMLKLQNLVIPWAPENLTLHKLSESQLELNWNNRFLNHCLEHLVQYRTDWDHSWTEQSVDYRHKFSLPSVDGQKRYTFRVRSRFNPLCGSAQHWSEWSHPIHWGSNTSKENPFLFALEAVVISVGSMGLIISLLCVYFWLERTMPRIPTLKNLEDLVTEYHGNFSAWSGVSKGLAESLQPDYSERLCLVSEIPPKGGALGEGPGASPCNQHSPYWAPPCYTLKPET

T3: hu-IL-2Rβ subunit (Homo sapiens, UniProt P14784)
T3 sequence (P14784 27-551): T1 sequence (P14784 27-551)

T4: hu-IL-2Rγc subunit (human, UniProt P31785 23-262, limits assumed)
T4 construct: also called human interleukin-2 receptor subunit γ; CD132
T4 sequence (looked up): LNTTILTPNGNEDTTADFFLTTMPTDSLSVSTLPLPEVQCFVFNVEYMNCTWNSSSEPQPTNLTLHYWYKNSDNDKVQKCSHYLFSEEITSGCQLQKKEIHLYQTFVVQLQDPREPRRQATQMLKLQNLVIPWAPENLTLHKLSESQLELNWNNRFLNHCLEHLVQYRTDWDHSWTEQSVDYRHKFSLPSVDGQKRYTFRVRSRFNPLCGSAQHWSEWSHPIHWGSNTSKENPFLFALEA

T5: hu-IL-2Rγc subunit (human), P31785
T5 chain: T4 sequence (looked up)

B1: SEQ ID NO 744 (peptide)
peptide: GGVVCQDWEGV[Alb]LCWQGG
modifications: not fully specified; printed as G G V V C Q D W E G V Alb L C W Q G G; cysteine pairing not given here; reading uncertain

Key:
[1] = target: T1, IL-2Rβ; experiment: competition with IL-2 binding to IL-2Rβ
[2] = target: T2, hu-IL-2Rγc subunit; experiment: competitive binding at the specific binding site on the hu-IL-2Rγc subunit
[3] = target: T3, hu-IL-2Rβ subunit; experiment: competitive binding at the specific binding site on the hu-IL-2Rβ subunit
Text: This specific binding site on the hu-IL-2Rβ subunit to which the group of IL-2Rβ ligands bind can be characterized using competitive binding assays as described.

[4] = target: T4, hu-IL-2Rγc subunit; experiment: phage ELISA competition assay
[5] = target: T4, hu-IL-2Rγc subunit
[6] = target: T5, hu-IL-2Rγc subunit (human), P31785
[7] = target: T5, hu-IL-2Rγc subunit (human), P31785

Molecule | IC50 [4] | IC50 [5] | also measured
N M C L V G D Y W P S C Q I (NMCLVGDYWPSCQI) [SEQ ID NO: 933] |  |  | competition with IL-2 binding to IL-2Rβ [1]: do not bind competitively
Y D C R I A Q V G E L C D L (YDCRIAQVGELCDL) [SEQ ID NO: 932] |  |  | competition with the group of IL-2Rγc ligands (SEQ ID NO: 935-940) for the specific binding site on the hu-IL-2Rγc subunit [2]: does not compete; competition with IL-2 binding to IL-2Rβ [1]: do not bind competitively
R W G D V G D L L M P L (RWGDVGDLLMPL) [SEQ ID NO: 934] |  |  | competition with IL-2 binding to IL-2Rβ [1]: do not bind competitively
D C S M W E G V E L C W (DCSMWEGVELCW) [SEQ ID NO: 935] |  |  | competition with the group of IL-2Rβ ligands for the specific binding site on the IL-2Rβ subunit [3]: does not compete; competition with IL-2 binding to IL-2Rβ [1]: do not bind competitively
R S C Y Y K R P R L W C S E (RSCYYKRPRLWCSE) [SEQ ID NO: 931] |  |  | competition with the group of IL-2Rβ ligands for the specific binding site on the IL-2Rβ subunit [3]: does not compete
S L L K C Y N A S T C A S V F (SLLKCYNASTCASVF) [SEQ ID NO: 723] |  |  | competition with the group of IL-2Rγc ligands (SEQ ID NO: 935-940) for the specific binding site on the hu-IL-2Rγc subunit [2]: do not compete
VTCQEYEGVELCWTVGCAYS [SEQ ID NO 698] | < 10 µM | < 100 µM | 
AHSRQEVVCEEWYGVELCWI [SEQ ID NO 649] | < 10 µM | < 100 µM | 
VVCQEWEGVELCWC [SEQ ID NO 661] | < 10 µM | < 100 µM | 
DVECVDWGGVELCWH [SEQ ID NO 646] | < 10 µM | < 100 µM | 
WSKKAEVVCEEWGGVEFCWI [SEQ ID NO 672] | < 10 µM | < 100 µM | 
VVCQEWEGVELCWYAGECMQ [SEQ ID NO 674] | < 10 µM | < 100 µM | 
ILCEEWQGVELCWLEGGGS [SEQ ID NO 714] | < 10 µM | < 100 µM | 
KPVVVCEEWQGVELCWLEIQ [SEQ ID NO 692] | < 10 µM | < 100 µM | 
VVCEVFQGVELCWCENEEFT [SEQ ID NO 693] | < 10 µM | < 100 µM | 
B1 |  | < 100 µM | 
ILCQEFEGVELCWLEESLAE [SEQ ID NO 675] | < 10 µM | < 100 µM | 
IECEEWAGVELCWL [SEQ ID NO 716] | < 10 µM |  | 
GGRTGVECQDWHGVELCWPVWEGG [SEQ ID NO 742] |  | < 100 µM | 
GYGVVCEDFRGVELCWLERK [SEQ ID NO 712] | < 10 µM | < 100 µM | 
VVCQEWEGVELCWVEPPLLP [SEQ ID NO 686] | < 10 µM | < 100 µM | 
KVCEMWGGVLLCWN (modifications not checked) [SEQ ID NO 936] |  |  | IC50 [6]: < 10 µM; IC50 [7]: < 100 µM

Molecule | IC50 [4] | IC50 [5] | also measured
GGVVCQDWEGVSLCWQGG [SEQ ID NO 746] |  | < 100 µM | 
GGVVCQDWEGVGLCWQGG [SEQ ID NO 747] |  | < 100 µM | 
GGVVCQDWEGVELCWQGPPA [SEQ ID NO 749] |  | < 100 µM | 
FAHHGVVECQEWYGVELCWQ [SEQ ID NO 670] | < 10 µM | < 100 µM | 
YSRELYVQCEDWEGVELCWI [SEQ ID NO 651] | < 10 µM | < 100 µM | 
LALRKEVVCQEYYGVELCWI [SEQ ID NO 641] | < 10 µM | < 100 µM | 
KLTVECQDWDGVELCWVGVE [SEQ ID NO 684] | < 10 µM | < 100 µM | 
VGIECEEWAGVELCWL [SEQ ID NO 715] | < 10 µM | < 100 µM | 
EGSTTTIECEEWAGVELCWL [SEQ ID NO 664] | < 10 µM | < 100 µM | 
KTTVACQDWGGVELCWVERV [SEQ ID NO 689] | < 10 µM | < 100 µM | 
RSDDEVVVCQEWEGVELCWQ [SEQ ID NO 666] | < 10 µM | < 100 µM | 
RLLNSVVECLDWEGVELCWQ [SEQ ID NO 659] | < 10 µM | < 100 µM | 
IECDTSYGVYICWQ [SEQ ID NO 637] | < 10 µM | < 100 µM | 
IECEEWAGVELCWL [SEQ ID NO 667] | < 10 µM | < 100 µM | 
GGVVCQDWEGVELCWQPPA (not fully specified (bridges); cysteine pairing not given here) [SEQ ID NO 748] |  | < 100 µM | 
RTGVECQDWHGVELCWPVWE [SEQ ID NO 711] | < 10 µM | < 100 µM | 
RSNQTVVECQDWEGVELCWQ [SEQ ID NO 673] | < 10 µM | < 100 µM | 
GGVVCQDWEGVXLCWQGG (not fully specified; Abu at residue 12, as printed in the table) [SEQ ID NO 743] |  | < 100 µM | 
KKIVVCQDWGGVELCWTEDD [SEQ ID NO 708] | < 10 µM | < 100 µM | 
MVNREVVVCEDWYGVELCWQ [SEQ ID NO 643] | < 10 µM | < 100 µM | 
GGRTEVECEDWEGVELCWLGG [SEQ ID NO 741] |  | < 100 µM | 
